Values quoted from earlier work as cited in publication PMC12990809.

Assays:
Experiment in all cases: pulldown
Conditions in all cases: 20 nM protein, 1.5 uM RNA pool; 20 mM HEPES pH 7.8, 70 mM KCl, 10 mM NaCl, 10% glycerol, 2 mM DTT, 0.1 ug/uL BSA; 30 min, 4 C (protocol of this paper; not …); cited from earlier work
[1] = target: T1, MAL13P1.35 (Plasmodium falciparum) (UniProt C0H5A4)
T1 sequence: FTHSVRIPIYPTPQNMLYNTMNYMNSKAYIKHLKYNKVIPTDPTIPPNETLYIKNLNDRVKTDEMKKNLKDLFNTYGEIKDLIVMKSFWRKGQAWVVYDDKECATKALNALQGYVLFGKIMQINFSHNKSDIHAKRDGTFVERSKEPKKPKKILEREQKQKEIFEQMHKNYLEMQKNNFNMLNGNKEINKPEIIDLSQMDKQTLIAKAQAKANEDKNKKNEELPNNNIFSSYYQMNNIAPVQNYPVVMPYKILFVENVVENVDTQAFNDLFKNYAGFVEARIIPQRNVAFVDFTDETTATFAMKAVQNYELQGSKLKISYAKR

rbm4.3 (Danio rerio) = target: T2, rbm4.3 (Danio rerio) (UniProt A0ACM8Q3W8)
T2 sequence: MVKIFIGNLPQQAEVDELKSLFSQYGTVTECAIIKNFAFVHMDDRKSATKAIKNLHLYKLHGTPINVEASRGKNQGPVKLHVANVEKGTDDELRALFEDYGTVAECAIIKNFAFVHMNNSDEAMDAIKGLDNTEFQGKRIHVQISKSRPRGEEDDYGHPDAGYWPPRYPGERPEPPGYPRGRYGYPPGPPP

[2] = target: T3, Tb11.01.7680 (Trypanosoma brucei) (UniProt Q381I4)
T3 sequence: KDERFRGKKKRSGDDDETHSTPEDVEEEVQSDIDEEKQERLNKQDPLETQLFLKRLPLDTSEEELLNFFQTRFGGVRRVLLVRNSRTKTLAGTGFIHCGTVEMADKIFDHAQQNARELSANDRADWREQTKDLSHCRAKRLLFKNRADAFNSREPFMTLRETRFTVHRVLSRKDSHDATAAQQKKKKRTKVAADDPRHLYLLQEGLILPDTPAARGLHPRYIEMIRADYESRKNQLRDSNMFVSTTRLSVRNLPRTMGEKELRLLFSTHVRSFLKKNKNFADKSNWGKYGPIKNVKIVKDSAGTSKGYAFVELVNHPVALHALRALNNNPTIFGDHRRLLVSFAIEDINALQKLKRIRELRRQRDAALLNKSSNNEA

Rbm45 (Mus musculus) = target: T4, Rbm45 (Mus musculus) (UniProt Q8BHN5)
T4 sequence: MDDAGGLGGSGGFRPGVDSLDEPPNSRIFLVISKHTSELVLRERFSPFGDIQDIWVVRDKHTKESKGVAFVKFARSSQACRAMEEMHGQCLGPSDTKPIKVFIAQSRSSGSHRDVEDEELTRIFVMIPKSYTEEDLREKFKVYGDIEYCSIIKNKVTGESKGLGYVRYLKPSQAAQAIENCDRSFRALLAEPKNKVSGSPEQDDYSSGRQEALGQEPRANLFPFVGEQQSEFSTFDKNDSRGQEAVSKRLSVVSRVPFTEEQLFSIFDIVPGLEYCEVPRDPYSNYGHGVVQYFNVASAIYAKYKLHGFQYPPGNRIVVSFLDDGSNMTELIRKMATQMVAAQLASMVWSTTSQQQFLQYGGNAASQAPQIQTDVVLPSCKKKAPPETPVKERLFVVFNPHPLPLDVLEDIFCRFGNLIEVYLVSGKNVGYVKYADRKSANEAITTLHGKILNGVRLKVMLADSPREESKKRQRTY

[3] = target: T5, PFF0320c (Plasmodium falciparum) (UniProt C6KSR3)
T5 sequence: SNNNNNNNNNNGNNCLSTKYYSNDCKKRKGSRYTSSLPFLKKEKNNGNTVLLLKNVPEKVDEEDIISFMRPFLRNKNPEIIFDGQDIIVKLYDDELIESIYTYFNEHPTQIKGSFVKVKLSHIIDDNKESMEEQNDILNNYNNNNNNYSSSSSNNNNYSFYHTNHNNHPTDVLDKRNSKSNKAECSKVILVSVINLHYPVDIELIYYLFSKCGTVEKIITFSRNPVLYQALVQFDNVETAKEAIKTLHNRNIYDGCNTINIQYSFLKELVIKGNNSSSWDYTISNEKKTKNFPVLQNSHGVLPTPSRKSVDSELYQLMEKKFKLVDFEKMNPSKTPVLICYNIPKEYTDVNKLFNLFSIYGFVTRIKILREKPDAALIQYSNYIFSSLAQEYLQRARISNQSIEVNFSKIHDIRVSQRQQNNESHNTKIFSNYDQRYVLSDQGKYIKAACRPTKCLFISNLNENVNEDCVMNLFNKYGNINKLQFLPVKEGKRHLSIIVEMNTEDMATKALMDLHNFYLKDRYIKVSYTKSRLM

[4] = target: T6, TVAG_514790 (Trichomonas vaginalis) (UniProt A2GMP0)
T6 sequence: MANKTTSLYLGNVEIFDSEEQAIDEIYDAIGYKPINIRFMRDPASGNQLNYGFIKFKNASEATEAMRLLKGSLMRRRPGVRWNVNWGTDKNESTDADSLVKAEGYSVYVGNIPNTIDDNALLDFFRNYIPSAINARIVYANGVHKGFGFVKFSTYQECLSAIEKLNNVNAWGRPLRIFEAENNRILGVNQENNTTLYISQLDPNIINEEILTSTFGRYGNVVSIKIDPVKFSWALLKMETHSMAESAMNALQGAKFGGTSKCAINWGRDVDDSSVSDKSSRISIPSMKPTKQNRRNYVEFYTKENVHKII

[5] = target: hnrnpabb (Tetraodon nigroviridis) (UniProt Q4SDS6)
Pcbp1 (Mus musculus) = Pcbp1 (Mus musculus) (UniProt P60335)
[6] = target: T7, Tb11.03.0170 (Trypanosoma brucei) (UniProt Q387F5)
T7 sequence: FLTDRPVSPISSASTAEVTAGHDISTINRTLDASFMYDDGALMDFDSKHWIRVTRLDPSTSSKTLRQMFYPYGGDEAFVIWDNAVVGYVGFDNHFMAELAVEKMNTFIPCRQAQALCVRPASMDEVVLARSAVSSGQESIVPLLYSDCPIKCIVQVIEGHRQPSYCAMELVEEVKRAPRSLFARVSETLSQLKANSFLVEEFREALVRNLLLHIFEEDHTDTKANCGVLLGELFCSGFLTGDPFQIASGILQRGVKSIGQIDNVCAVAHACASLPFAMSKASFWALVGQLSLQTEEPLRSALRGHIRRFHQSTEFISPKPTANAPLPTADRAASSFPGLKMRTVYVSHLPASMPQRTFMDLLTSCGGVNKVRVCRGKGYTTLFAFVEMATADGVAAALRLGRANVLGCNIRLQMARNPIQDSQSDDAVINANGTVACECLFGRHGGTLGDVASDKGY

[7] = target: T8, fox-1 ins385_GNEYIMYHQAKQQELP (Caenorhabditis elegans) (UniProt Q10572)
T8 sequence: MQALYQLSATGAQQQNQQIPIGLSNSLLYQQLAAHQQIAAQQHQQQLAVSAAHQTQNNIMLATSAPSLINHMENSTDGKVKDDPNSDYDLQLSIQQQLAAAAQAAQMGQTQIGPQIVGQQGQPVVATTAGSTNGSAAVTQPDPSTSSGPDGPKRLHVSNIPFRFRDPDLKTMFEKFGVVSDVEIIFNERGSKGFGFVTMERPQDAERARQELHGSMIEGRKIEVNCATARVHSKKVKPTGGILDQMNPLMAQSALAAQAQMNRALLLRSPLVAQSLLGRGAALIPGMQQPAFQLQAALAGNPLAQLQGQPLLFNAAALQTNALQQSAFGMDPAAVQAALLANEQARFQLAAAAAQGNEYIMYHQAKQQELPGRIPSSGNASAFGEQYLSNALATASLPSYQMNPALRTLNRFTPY

[8] = target: T9, Phyra93644 G140S (Phytophthora ramorum) (UniProt H3HB24)
T9 sequence: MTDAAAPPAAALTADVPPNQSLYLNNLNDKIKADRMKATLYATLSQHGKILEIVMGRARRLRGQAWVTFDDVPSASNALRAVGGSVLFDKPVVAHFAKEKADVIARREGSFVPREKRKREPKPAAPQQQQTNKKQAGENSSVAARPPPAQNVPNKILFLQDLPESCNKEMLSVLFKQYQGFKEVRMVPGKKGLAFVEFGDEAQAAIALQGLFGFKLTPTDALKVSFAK

[9] = target: T10, Tb927.3.3670 (Trypanosoma brucei) (UniProt Q57WA3)
T10 sequence: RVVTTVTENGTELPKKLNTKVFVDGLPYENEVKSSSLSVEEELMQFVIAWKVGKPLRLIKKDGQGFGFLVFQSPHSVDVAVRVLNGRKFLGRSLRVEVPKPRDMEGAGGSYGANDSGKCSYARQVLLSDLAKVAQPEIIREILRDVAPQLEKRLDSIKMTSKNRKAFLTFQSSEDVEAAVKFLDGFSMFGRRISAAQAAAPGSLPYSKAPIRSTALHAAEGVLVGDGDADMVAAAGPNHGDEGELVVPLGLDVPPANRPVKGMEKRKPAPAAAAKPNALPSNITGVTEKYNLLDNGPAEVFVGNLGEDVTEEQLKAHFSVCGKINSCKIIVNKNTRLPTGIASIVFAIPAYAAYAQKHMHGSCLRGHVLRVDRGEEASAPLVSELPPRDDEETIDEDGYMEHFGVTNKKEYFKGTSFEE

pcbp2 (Danio rerio) = pcbp2 (Danio rerio) (UniProt A0A8M1PCB6)
[10] = target: T11, Smp_067420 (Schistosoma mansoni) (UniProt G4LZ80)
T11 sequence: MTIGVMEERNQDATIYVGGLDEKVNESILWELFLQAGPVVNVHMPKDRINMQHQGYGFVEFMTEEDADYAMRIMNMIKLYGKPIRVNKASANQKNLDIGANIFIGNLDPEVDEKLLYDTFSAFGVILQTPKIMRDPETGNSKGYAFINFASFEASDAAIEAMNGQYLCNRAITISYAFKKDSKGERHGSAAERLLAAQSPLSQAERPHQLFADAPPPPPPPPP

[11] = target: T12, PF10_0214 (Plasmodium falciparum) (UniProt Q8IJI3)
T12 sequence: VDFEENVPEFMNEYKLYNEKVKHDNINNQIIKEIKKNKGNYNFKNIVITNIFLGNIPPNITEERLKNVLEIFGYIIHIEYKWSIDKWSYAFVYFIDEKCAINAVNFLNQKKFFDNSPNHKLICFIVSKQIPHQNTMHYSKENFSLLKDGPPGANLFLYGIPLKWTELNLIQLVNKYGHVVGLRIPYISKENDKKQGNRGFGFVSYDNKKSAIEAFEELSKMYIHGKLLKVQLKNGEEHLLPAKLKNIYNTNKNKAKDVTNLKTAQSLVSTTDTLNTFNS

[12] = target: T13, estExt_gwp_gw1.C_700168 (Physcomitrella patens) (UniProt A0A2K1JQP1)
T13 sequence: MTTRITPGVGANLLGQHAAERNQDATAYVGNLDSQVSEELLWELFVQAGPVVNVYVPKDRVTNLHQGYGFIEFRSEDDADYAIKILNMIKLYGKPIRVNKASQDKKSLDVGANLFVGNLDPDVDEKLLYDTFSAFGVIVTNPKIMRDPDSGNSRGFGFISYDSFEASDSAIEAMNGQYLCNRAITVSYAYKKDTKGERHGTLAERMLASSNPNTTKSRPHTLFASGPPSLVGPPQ

[13] = target: T14, NCU02404 (Neurospora crassa) (UniProt V5ILJ4)
T14 sequence: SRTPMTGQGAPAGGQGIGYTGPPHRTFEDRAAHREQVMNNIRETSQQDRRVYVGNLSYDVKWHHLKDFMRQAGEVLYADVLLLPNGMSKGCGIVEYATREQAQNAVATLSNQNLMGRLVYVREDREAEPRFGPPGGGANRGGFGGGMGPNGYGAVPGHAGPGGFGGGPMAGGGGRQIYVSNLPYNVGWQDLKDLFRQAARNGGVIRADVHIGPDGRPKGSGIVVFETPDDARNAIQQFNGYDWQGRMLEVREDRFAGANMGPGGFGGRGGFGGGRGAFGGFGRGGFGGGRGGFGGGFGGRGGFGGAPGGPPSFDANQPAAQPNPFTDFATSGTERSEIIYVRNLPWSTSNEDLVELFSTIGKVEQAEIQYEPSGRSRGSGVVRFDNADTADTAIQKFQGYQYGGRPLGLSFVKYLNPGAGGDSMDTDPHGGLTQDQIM

Sequence of pcbp2 (Danio rerio) (A0A8M1PCB6 entry or part of it): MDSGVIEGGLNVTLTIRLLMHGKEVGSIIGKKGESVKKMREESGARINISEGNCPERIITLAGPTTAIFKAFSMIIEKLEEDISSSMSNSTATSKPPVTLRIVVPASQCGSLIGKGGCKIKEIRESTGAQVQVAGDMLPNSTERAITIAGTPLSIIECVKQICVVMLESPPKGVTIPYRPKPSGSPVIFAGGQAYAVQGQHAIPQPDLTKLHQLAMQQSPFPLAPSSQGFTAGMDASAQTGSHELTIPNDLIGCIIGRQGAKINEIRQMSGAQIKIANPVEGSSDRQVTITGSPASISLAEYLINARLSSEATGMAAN
Sequence of hnrnpabb (Tetraodon nigroviridis) (Q4SDS6 entry or part of it): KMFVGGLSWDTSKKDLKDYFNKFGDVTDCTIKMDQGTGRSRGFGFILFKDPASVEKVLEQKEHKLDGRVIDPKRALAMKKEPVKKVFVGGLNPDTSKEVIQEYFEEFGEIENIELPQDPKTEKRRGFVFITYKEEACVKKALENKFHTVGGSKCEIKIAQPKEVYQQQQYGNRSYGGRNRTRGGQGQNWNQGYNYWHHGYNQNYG
Sequence of Pcbp1 (Mus musculus) (P60335 whole entry): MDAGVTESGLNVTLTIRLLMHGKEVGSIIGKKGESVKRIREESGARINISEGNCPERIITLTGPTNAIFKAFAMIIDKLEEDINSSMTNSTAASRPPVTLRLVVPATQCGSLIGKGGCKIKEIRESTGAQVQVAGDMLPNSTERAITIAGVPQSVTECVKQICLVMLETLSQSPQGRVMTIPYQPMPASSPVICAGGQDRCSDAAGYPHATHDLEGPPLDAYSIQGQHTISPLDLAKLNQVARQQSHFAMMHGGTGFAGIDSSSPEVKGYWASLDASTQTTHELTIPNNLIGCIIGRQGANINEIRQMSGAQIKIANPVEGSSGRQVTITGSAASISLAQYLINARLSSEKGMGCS

For AUUACAC [RNAcompete motif RNCMPT00234], the binding signal (z-score (mean of top ten 7-mers)) [1] is given as 15.8.

In the case of ACGACG [RNAcompete motif RNCMPT00248], the binding signal (z-score (mean of top ten 7-mers)) (rbm4.3 (Danio rerio)) is given as 10.2.

For AGUAGAU [RNAcompete motif RNCMPT00252], the binding signal (z-score (mean of top ten 7-mers)) [2] is given as 7.34.

In the case of GACGAC [RNAcompete motif RNCMPT00241], the binding signal (z-score (mean of top ten 7-mers)) (Rbm45 (Mus musculus)) is given as 10.6.

For ACUAAAC [RNAcompete motif RNCMPT00235], the binding signal (z-score (mean of top ten 7-mers)) [3] is given as 8.17.

In the case of UUUUUU [RNAcompete motif RNCMPT00236], the binding signal (z-score (mean of top ten 7-mers)) [4] is given as 10.3.

For AGAUAGA [RNAcompete motif RNCMPT00245], the binding signal (z-score (mean of top ten 7-mers)) [5] is listed as 8.14.

For CUUUCCC [RNAcompete motif RNCMPT00239], the binding signal (z-score (mean of top ten 7-mers)) (Pcbp1 (Mus musculus)) is listed as 6.21.

In the case of UUCACAC [RNAcompete motif RNCMPT00251], the binding signal (z-score (mean of top ten 7-mers)) [6] is listed as 9.19.

For UGCAUG [RNAcompete motif RNCMPT00017], the binding signal (z-score (mean of top ten 7-mers)) [7] is listed as 24.8.

For UUGCAC [RNAcompete motif RNCMPT00249], the binding signal (z-score (mean of top ten 7-mers)) [8] is given as 12.

In the case of GAAGGA [RNAcompete motif RNCMPT00230], the binding signal (z-score (mean of top ten 7-mers)) [9] is listed as 6.23.

In the case of CUUUCCC [RNAcompete motif RNCMPT00246], the binding signal (z-score (mean of top ten 7-mers)) (pcbp2 (Danio rerio)) is listed as 6.92.

In the case of AUUUUUU [RNAcompete motif RNCMPT00232], the binding signal (z-score (mean of top ten 7-mers)) [10] is listed as 8.88.

In the case of AUUCCGA [RNAcompete motif RNCMPT00240], the binding signal (z-score (mean of top ten 7-mers)) [11] is given as 11.3.

For GAUGGAGU [RNAcompete motif RNCMPT00237], the binding signal (z-score (mean of top ten 7-mers)) [12] is given as 9.26.

For GGAGGA [RNAcompete motif RNCMPT00238], the binding signal (z-score (mean of top ten 7-mers)) [13] is given as 6.21.
